Source: patent publication US20160090427A1 (SAMSUNG ELECTRONICS, published 2016)

Key:
[1] = target: T1, human c-Met/Fc fusion protein (R&D Systems) (human, UniProt P08581 25-932); test: SPR (Biacore T100), bispecific captured by human Fab binder on CM5 chip, c-Met-Fc injected
T1 construct: Bought reagent; also called c-Met-Fc (#358-MT/CF, R&D Systems); human c-Met/Fc protein; not shown: Fc part of the bought fusion protein
Protocol: An examination on whether the anti-c-Met/anti-VEGF bispecific antibody maintains binding affinity to c-Met was conducted using Biacore T100(GE). A human Fab binding agent (GE Healthcare) was immobilized onto a CM5 chip (#BR-1005-30, GE) according to the manufacturer's instructions. About 90˜120 RU of the anti-c-Met/anti-VEGF bispecific antibody was captured, and c-Met-Fc (#358-MT/CF, R&D Systems) was injected thereto at various concentrations. Then, 10 mM Glycine-HCl (pH 2.1) solution was injected thereto to regenerate the surface. The obtained data were fitted using BlAevaluation software (GE Healthcare, Biacore T100 evaluation software), to measure the binding affinity to c-Met.

VEGF (R&D systems) = VEGF (R&D systems) (UniProt P15692-4 27-191, limits assumed); test: SPR (Biacore T100), CM5 chip, VEGF; format unclear in the text
Protocol: An examination on whether the 8 anti-c-Met/anti-VEGF bispecific antibodies prepared in Example 2 maintains binding affinity to VEGF was conducted using Biacore T100(GE). VEGF (R&D systems) immobilized on the surface of CM5 chip (#BR-1005-30, GE) by amino coupling according to the manufacturer's instructions. About 90˜120 RU of the anti-c-Met/anti-VEGF bispecific antibody was captured, and […] was injected thereto at various concentrations. Then, a solution containing 1M NaCl and 5 mM NaOH was injected thereto to regenerate the surface. The obtained data were fitted using BlAevaluation software (GE Healthcare, Biacore T100 evaluation software), to measure the binding affinity to VEGF.

[2] = target: T1, human c-Met/Fc fusion protein (R&D …); test: ELISA, human c-Met/Fc fusion protein coated on plate, hybridoma culture, anti-mouse IgG-HRP
Protocol: Human c-Met/Fc fusion protein was seeded in an amount of 50 μL (2 μg/mL)/well to microtiter plates and allowed to adhere to the surface of each well. The antibody that remained unbound was removed by washing.
The hybridoma cell culture obtained in Reference Example 1.1.2 was added in an amount of 50 μL to each well of the plates and incubated for 1 hour. The cells remaining unreacted were washed out with a sufficient amount of Tris-buffered saline and Tween 20 (TBST). Goat anti-mouse IgG-horseradish peroxidase (HRP) was added to the plates and incubated for 1 hour at room temperature. The plates were washed with a sufficient amount of TBST, followed by reacting the peroxidase with a substrate (OPD). Absorbance at 450 nm was measured on an ELISA reader.

T1 sequence (P08581 25-932 limits assumed): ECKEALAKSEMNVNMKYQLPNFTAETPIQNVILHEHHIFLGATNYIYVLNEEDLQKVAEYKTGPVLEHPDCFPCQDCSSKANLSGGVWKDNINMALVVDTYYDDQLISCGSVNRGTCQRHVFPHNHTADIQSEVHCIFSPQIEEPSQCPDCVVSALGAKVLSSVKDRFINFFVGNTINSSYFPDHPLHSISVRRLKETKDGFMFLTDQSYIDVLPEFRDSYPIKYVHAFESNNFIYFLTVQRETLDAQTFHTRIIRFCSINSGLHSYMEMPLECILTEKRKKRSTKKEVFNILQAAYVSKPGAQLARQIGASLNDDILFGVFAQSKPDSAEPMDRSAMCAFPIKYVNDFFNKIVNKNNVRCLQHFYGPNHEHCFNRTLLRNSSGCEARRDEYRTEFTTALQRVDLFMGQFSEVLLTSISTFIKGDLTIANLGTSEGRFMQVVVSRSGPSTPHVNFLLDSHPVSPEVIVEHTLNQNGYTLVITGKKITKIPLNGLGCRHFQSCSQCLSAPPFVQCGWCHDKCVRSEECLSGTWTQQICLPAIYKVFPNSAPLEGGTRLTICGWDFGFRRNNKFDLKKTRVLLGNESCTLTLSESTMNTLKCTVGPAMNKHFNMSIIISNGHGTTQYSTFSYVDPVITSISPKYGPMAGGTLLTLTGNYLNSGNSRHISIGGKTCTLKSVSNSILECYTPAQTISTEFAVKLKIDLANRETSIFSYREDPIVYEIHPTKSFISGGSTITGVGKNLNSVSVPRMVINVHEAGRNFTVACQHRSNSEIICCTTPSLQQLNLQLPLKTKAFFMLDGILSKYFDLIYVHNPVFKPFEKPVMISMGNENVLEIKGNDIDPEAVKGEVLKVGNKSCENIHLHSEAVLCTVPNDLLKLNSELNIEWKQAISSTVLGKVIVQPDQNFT
VEGF (R&D systems), sequence (P15692 other isoform, or with tags, fused parts or gaps limits assumed): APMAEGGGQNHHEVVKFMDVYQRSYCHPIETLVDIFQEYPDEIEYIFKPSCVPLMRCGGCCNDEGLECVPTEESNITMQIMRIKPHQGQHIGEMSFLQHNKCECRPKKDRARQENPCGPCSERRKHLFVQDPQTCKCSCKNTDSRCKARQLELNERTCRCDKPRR

| Binder | Kd [1] [nM] | Kd (VEGF (R&D systems)) [nM] | binding result [2] |
| --- | --- | --- | --- |
| MV-21 anti-c-Met/anti-VEGF bispecific antibody (bispecific antibody, human IgG2, kappa) heavy: EVQLVESGGGLVQPGGSLRLSCAASGFTFTDYYMSWVRQAPGKGLEWLGFIRNKANGYTTEYSASVKGRFTISRDNSKNTLYLQMNSLRAEDTAVYYCARDNWFAYWGQGTLVTVSSASTKGPSVFPLAPCSRSTSESTAALGCLVKDYFPEPVTVSWNSGALTSGVHTFPAVLQSSGLYSLSSVVTVPSSNFGTQTYTCNVDHKPSNTKVDKTVERKCCVECPPCPAPPVAGPSVFLFPPKPKDTLMISRTPEVTCVVVDVSHEDPEVQFNWYVDGVEVHNAKTKPREEQFNSTFRVVSVLTVVHQDWLNGKEYKCKVSNKGLPAPIEKTISKTKGQPREPQVYTLPPSREEMTKNQVSLTCLVKGFYPSDIAVEWESNGQPENNYKTTPPMLDSDGSFFLYSKLTVDKSRWQQGNVFSCSVMHEALHNHYTQKSLSLSPGKGGGGSGGGGSEVQLLESGGGLVQPGGSLRLSCAASGFTFSGYAMSWVRQAPGKGLEWVSGISHDGGNTYYADSVKGRFTISRDNSKNTLYLQMNSLRAEDTAVYYCARDRRKGPSTEFDYWGQGTLVTVSSGGGGSGGGGSGGGGSQSVLTQPPSLSGTPGQRVTISCTGSSSNIGSNSVSWYQQLPGTAPKLLIYDDNNRPSGVPDRFSGSKSGTSASLAISGLRSEDEADYYCGAWDYSLSAYVFGGGTKLTVLG light: DIQMTQSPSSLSASVGDRVTITCKSSQSLLASGNQNNYLAWYQQKPGKAPKMLIIWASTRVSGVPSRFSGSGSGTDFTLTISSLQPEDFATYYCQQSYSRPYTFGQGTKVEIKRTVAAPSVFIFPPSDEQLKSGTASVVCLLNNFYPREAKVQWKVDNALQSGNSQESVTEQDSKDSTYSLSSTLTLSKADYEKHKVYACEVTHQGLSSPVTKSFNRGEC | 0.04 | 8.27 | – |
| AbF46, mouse monoclonal antibody to c-Met (antibody, V domains shown, Tested as hybridoma culture supernatant in the selection ELISA; also called antibody of hybridoma KCLRF-BP-00220) VH: EVKLVESGGGLVQPGGSLRLSCATSGFTFTDYYMSWVRQPPGKALEWLGFIRNKANGYTTEYSASVKGRFTISRDNSQSILYLQMDTLRAEDSATYYCARDNWFAYWGQGTLVTVSA VL: DILMTQSPSSLTVSAGEKVTMSCKSSQSLLASGNQNNYLAWHQQKPGRSPKMLIIWASTRVSGVPDRFIGSGSGTDFTLTINSVQAEDLAVYYCQQSYSAPLTFGAGTKLELK | – | – | binds |

Next, values leading:

| Kd [1] [nM] | Kd (VEGF (R&D systems)) [nM] | binding result [2] | Binder |
| --- | --- | --- | --- |
| 0.04 | 4.43 | – | MV-20 anti-c-Met/anti-VEGF bispecific antibody (bispecific antibody, human IgG2, kappa) heavy: EVQLVESGGGLVQPGGSLRLSCAASGFTFTDYYMSWVRQAPGKGLEWLGFIRNKANGYTTEYSASVKGRFTISRDNSKNTLYLQMNSLRAEDTAVYYCARDNWFAYWGQGTLVTVSSASTKGPSVFPLAPCSRSTSESTAALGCLVKDYFPEPVTVSWNSGALTSGVHTFPAVLQSSGLYSLSSVVTVPSSNFGTQTYTCNVDHKPSNTKVDKTVERKCCVECPPCPAPPVAGPSVFLFPPKPKDTLMISRTPEVTCVVVDVSHEDPEVQFNWYVDGVEVHNAKTKPREEQFNSTFRVVSVLTVVHQDWLNGKEYKCKVSNKGLPAPIEKTISKTKGQPREPQVYTLPPSREEMTKNQVSLTCLVKGFYPSDIAVEWESNGQPENNYKTTPPMLDSDGSFFLYSKLTVDKSRWQQGNVFSCSVMHEALHNHYTQKSLSLSPGKGGGGSGGGGSEVQLLESGGGLVQPGGSLRLSCAASGFTFSNYDMSWVRQAPGKGLEWVSLISHGGGNIYYADSVKGRFTISRDNSKNTLYLQMNSLRAEDTAVYYCARVPVMCTNHWCSYANGMDVWGQGTLVTVSSGGGGSGGGGSGGGGSQSVLTQPPSASGTPGQRVIISCSASSSNIGSNAVYWYQQLPGTAPKLLIYSDNQRPSGVPDRFSGSKSGTSASLAISGLRSEDEADYYCGSWDYSLSAYVFGGGTKLTVLG light: DIQMTQSPSSLSASVGDRVTITCKSSQSLLASGNQNNYLAWYQQKPGKAPKMLIIWASTRVSGVPSRFSGSGSGTDFTLTISSLQPEDFATYYCQQSYSRPYTFGQGTKVEIKRTVAAPSVFIFPPSDEQLKSGTASVVCLLNNFYPREAKVQWKVDNALQSGNSQESVTEQDSKDSTYSLSSTLTLSKADYEKHKVYACEVTHQGLSSPVTKSFNRGEC |
| 0.06 | 2.2 | – | MV-22 anti-c-Met/anti-VEGF bispecific antibody (bispecific antibody, human IgG2, kappa) heavy: EVQLVESGGGLVQPGGSLRLSCAASGFTFTDYYMSWVRQAPGKGLEWLGFIRNKANGYTTEYSASVKGRFTISRDNSKNTLYLQMNSLRAEDTAVYYCARDNWFAYWGQGTLVTVSSASTKGPSVFPLAPCSRSTSESTAALGCLVKDYFPEPVTVSWNSGALTSGVHTFPAVLQSSGLYSLSSVVTVPSSNFGTQTYTCNVDHKPSNTKVDKTVERKCCVECPPCPAPPVAGPSVFLFPPKPKDTLMISRTPEVTCVVVDVSHEDPEVQFNWYVDGVEVHNAKTKPREEQFNSTFRVVSVLTVVHQDWLNGKEYKCKVSNKGLPAPIEKTISKTKGQPREPQVYTLPPSREEMTKNQVSLTCLVKGFYPSDIAVEWESNGQPENNYKTTPPMLDSDGSFFLYSKLTVDKSRWQQGNVFSCSVMHEALHNHYTQKSLSLSPGKGGGGSGGGGSEVQLLESGGGLVQTGGSLRLSCAASGFTFSDYAMSWVRQAPGKGLEWVSWIYPGDSSIYYADSVKGRFTISRDNSKNTLYLQMNSLRAEDTAVYYCARLLSIDQAQLHYYYDAMDVWGQGTLVTVSSGGGGSGGGGSGGGGSQSVLTQPPSPSGTPGQRVTISCTGSSSNIGNYYVYWYQQLPGTAPKLLIYANSHRPSGVPDRFSGSKSGTSASLAISGLRSEDEADYYCGSWDDSLSAYVFGGGTKLTVLG light: DIQMTQSPSSLSASVGDRVTITCKSSQSLLASGNQNNYLAWYQQKPGKAPKMLIIWASTRVSGVPSRFSGSGSGTDFTLTISSLQPEDFATYYCQQSYSRPYTFGQGTKVEIKRTVAAPSVFIFPPSDEQLKSGTASVVCLLNNFYPREAKVQWKVDNALQSGNSQESVTEQDSKDSTYSLSSTLTLSKADYEKHKVYACEVTHQGLSSPVTKSFNRGEC |
